# Measurements from patent US20240279281A1, “Peptide Inhibitors of Interleukin-23 Receptor” (Janssen Pharmaceutica NV, priority 2023, published 2024).
# Starred links: 1 amine or outer side, 2 acyl side, 3 side chain; linkers in the order of their positions; H or OH if unused. Positions of bridges follow the written chain, without caps; N, C: chain ends. Non-standard residues stand in square brackets, D forms with d. No end group written: not given here. X3 = 4‑(2-(4-(2-amino-2-carboxyethyl)phenoxy)ethyl)‑4‑methylmorpholin‑4‑ium, C[N+]1(CCOc2ccc(CC(N[*:1])C(=O)[*:2])cc2)CCOCC1; X6 = 2‑amino‑3‑(4-carbamoyl-1H-imidazol-1-yl)propanoic acid, NC(=O)c1cn(CC(N[*:1])C(=O)[*:2])cn1; 2Nal(6-OH) = N[C@@H](Cc1ccc2cc(O)ccc2c1)C(=O)O; Trp(7-Me) = Cc1cccc2c(C[C@H](N)C(=O)O)c[nH]c12; AEF = NCCOc1ccc(C[C@H](N)C(=O)O)cc1; 3Pal = N[C@@H](Cc1cccnc1)C(=O)O; Pen = CC(C)(S)[C@H](N)C(=O)O; lipid = not defined here; Thp = NC1(C(=O)O)CCOCC1; Sar = CNCC(=O)O
# B1: SEQ ID NO: 254 (peptide)
# peptide: R[Pen]NT[Trp(7-Me)]K(Ac)[Pen][2‑amino‑3‑(4-(2-aminoethoxy)phenyl)propanoic acid][2‑amino‑3‑(6-hydroxynaphthalen-2-yl)propanoic acid][Thp]K(Ac)N[3Pal][Sar]K
# modifications: disulfide 2-7 (inferred); not fully specified (residue 15); ends not checked; also: K15: lipidated lysine, lipid not given here
# B2: SEQ ID NO: 255 (peptide)
# peptide: R[Pen]NT[Trp(7-Me)]K(Ac)[Pen][2‑amino‑3‑(4-(2-aminoethoxy)phenyl)propanoic acid][2‑amino‑3‑(6-hydroxynaphthalen-2-yl)propanoic acid][Thp]K(Ac)N[3Pal][Sar]K
# modifications: disulfide 2-7 (inferred); not fully specified (residue 15); ends not checked; also: K15: lipidated lysine, lipid not given here
# B3: SEQ ID NO: 256 (peptide)
# peptide: [Pen]NT[Trp(7-Me)]K(Ac)[Pen][2‑amino‑3‑(4-(2-aminoethoxy)phenyl)propanoic acid][2‑amino‑3‑(6-hydroxynaphthalen-2-yl)propanoic acid][Thp]K(Ac)N[3Pal][Sar]K
# modifications: disulfide 1-6 (inferred); not fully specified (residue 14); ends not checked; also: K14: lipidated lysine, lipid not given here
# B4: SEQ ID NO: 263 (peptide)
# peptide: [(R)‑3‑carboxy‑2‑(4-(((R)-5-carboxy-5-hydrazineylpentyl)amino)-4-oxobutanamido)‑N,N,N‑trimethylpropan‑1‑aminium][Pen]NT[Trp(7-Me)]K(Ac)[Pen][2‑amino‑3‑(4-(2-aminoethoxy)phenyl)propanoic acid][2‑amino‑3‑(6-hydroxynaphthalen-2-yl)propanoic acid][Thp]EN[3Pal][Sar]
# modifications: disulfide 2-7 (inferred); ends not checked
# B5: SEQ ID NO: 264 (peptide)
# peptide: [(R)‑3‑carboxy‑2‑(4-(((R)-5-carboxy-5-hydrazineylpentyl)amino)-4-oxobutanamido)‑N,N,N‑trimethylpropan‑1‑aminium][Pen]NT[Trp(7-Me)]K(Ac)[Pen][2‑amino‑3‑(4-(2-aminoethoxy)phenyl)propanoic acid][2‑amino‑3‑(6-hydroxynaphthalen-2-yl)propanoic acid][Thp]EN[3Pal][Sar]
# modifications: disulfide 2-7 (inferred); ends not checked
# B6: SEQ ID NO: 265 (peptide)
# peptide: [(R)‑3‑carboxy‑2‑(4-(((R)-5-carboxy-5-hydrazineylpentyl)amino)-4-oxobutanamido)‑N,N,N‑trimethylpropan‑1‑aminium][Pen]NT[Trp(7-Me)]K(Ac)[Pen][2‑amino‑3‑(4-(2-aminoethoxy)phenyl)propanoic acid][2‑amino‑3‑(6-hydroxynaphthalen-2-yl)propanoic acid][Thp]EN[3Pal][Sar]
# modifications: disulfide 2-7 (inferred); ends not checked
# B7: SEQ ID NO: 266 (peptide)
# peptide: [(R)‑3‑carboxy‑2‑(4-(((R)-5-carboxy-5-hydrazineylpentyl)amino)-4-oxobutanamido)‑N,N,N‑trimethylpropan‑1‑aminium][Pen]NT[Trp(7-Me)]K(Ac)[Pen][2‑amino‑3‑(4-(2-aminoethoxy)phenyl)propanoic acid][2‑amino‑3‑(6-hydroxynaphthalen-2-yl)propanoic acid][Thp]EN[3Pal][Sar]
# modifications: disulfide 2-7 (inferred); ends not checked
# B8: SEQ ID NO: 267 (peptide)
# peptide: [Pen]NT[Trp(7-Me)]K(Ac)[Pen][2‑amino‑3‑(4-(2-aminoethoxy)phenyl)propanoic acid][2‑amino‑3‑(6-hydroxynaphthalen-2-yl)propanoic acid][Thp]K(Ac)N[3Pal][Sar]K
# modifications: disulfide 1-6 (inferred); not fully specified (residue 14); ends not checked; also: K14: lipidated lysine
# B9: SEQ ID NO: 268 (peptide)
# peptide: K[Pen]NT[Trp(7-Me)]K(Ac)[Pen][2‑amino‑3‑(4-(2-aminoethoxy)phenyl)propanoic acid][2‑amino‑3‑(6-hydroxynaphthalen-2-yl)propanoic acid][Thp]EN[3Pal][Sar]
# modifications: disulfide 2-7 (inferred); not fully specified (residue 1); ends not checked; also: K1: lipidated lysine
# B10: SEQ ID NO: 269 (peptide)
# peptide: R[Pen]NT[Trp(7-Me)]K(Ac)[Pen][2‑amino‑3‑(4-(2-aminoethoxy)phenyl)propanoic acid][2‑amino‑3‑(6-hydroxynaphthalen-2-yl)propanoic acid][Thp]EN[3Pal][Sar]K
# modifications: disulfide 2-7 (inferred); not fully specified (residue 15); ends not checked; also: K15: lipidated lysine
# B11: SEQ ID NO: 271 (peptide)
# peptide: [Pen]NT[Trp(7-Me)]K(Ac)[Pen][2‑amino‑3‑(4-(2-aminoethoxy)phenyl)propanoic acid][2‑amino‑3‑(6-hydroxynaphthalen-2-yl)propanoic acid][Thp]K(Ac)N[3Pal][Sar]K(lipid)
# modifications: disulfide 1-6 (inferred); ends not checked; also: K14: lipidated lysine
# B12: SEQ ID NO: 72 (peptide)
# peptide: [Pen]NT[Trp(7-Me)]K(Ac)[Pen][AEF][2Nal(6-OH)][Thp]K(Ac)N[3Pal][Sar]K
# modifications: not fully specified (bridges); ends and bridges not checked; also: K14: lipidated lysine, lipid not given here
# B13: SEQ ID NO: 277 (peptide)
# peptide: [Pen]NT[Trp(7-Me)]K(Ac)[Pen][2‑amino‑3‑(4-(2-aminoethoxy)phenyl)propanoic acid][2‑amino‑3‑(6-hydroxynaphthalen-2-yl)propanoic acid][Thp]K(Ac)N[3Pal][Sar]K(lipid)
# modifications: disulfide 1-6 (inferred); ends not checked; also: K14: lipidated lysine
# B14: SEQ ID NO: 73 (peptide)
# peptide: R[Pen]NTWK(Ac)[Pen][X3][2Nal(6-OH)][Thp]EN[3Pal][Sar]
# modifications: not fully specified (bridges); ends and bridges not checked
# B15: SEQ ID NO: 75 (peptide)
# peptide: [Pen]NT[Trp(7-Me)]K(Ac)[Pen][5‑(4-(2-amino-2-carboxyethyl)phenoxy)‑N,N,N‑trimethylpentan‑1‑aminium][2Nal(6-OH)][Thp]EN[3Pal][Sar]
# modifications: not fully specified (bridges); ends and bridges not checked
# B16: SEQ ID NO: 395 (peptide)
# peptide: K[Pen]ET[Trp(7-Me)]K(Ac)[Pen][2‑amino‑3‑(4-(2-aminoethoxy)phenyl)propanoic acid][2‑amino‑3‑(6-hydroxynaphthalen-2-yl)propanoic acid][Thp]EN[3Pal][Sar]
# modifications: not fully specified (residue 1, bridges); ends and bridges not checked; also: Lys1: lipidated lysine, lipid not given here
# B17: SEQ ID NO: 80 (peptide)
# peptide: [Pen]NT[Trp(7-Me)]K(Ac)[Pen][2‑amino‑3‑(4-(2-aminoethoxy)phenyl)propanoic acid][2‑amino‑3‑(6-hydroxynaphthalen-2-yl)propanoic acid][Thp]KN[3Pal][Sar]
# modifications: not fully specified (bridges); ends and bridges not checked; also: K10: lipidated lysine, lipid not given here
# B18: SEQ ID NO: 81 (peptide)
# peptide: [Pen]NT[Trp(7-Me)]K[Pen][2‑amino‑3‑(4-(2-aminoethoxy)phenyl)propanoic acid][2‑amino‑3‑(6-hydroxynaphthalen-2-yl)propanoic acid][Thp]K(Ac)N[3Pal][Sar]
# modifications: not fully specified (bridges); ends and bridges not checked; also: K5: lipidated lysine, lipid not given here
# B19: SEQ ID NO: 419 (peptide)
# peptide: R[Pen]NT[Trp(7-Me)]K(Ac)[Pen][AEF][2Nal(6-OH)][Thp]EN[X6][Sar]
# modifications: not fully specified (bridges); ends and bridges not checked
# Target: T1, interleukin-23 receptor (IL-23R), Q5VWK5
# T1 chain: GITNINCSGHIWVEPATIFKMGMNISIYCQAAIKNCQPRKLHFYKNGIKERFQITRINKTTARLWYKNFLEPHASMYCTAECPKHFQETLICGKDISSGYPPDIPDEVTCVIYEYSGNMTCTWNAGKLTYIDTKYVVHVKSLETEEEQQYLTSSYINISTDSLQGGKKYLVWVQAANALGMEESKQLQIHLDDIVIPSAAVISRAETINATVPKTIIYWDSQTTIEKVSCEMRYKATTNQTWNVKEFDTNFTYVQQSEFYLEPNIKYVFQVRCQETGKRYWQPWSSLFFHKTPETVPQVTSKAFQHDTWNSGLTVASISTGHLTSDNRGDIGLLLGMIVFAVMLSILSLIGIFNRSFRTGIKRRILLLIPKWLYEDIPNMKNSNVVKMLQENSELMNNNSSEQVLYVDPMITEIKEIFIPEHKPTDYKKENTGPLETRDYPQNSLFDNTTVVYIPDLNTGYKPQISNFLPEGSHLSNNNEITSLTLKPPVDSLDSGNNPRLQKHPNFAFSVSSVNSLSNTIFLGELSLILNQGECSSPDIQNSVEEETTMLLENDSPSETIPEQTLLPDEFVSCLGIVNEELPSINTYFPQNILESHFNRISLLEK
# Experiment: cell-based or functional assay
PBMC pSTAT3 IC50,IL23R Reporter Assay IC50,Binder
< 1 nM,,B1
< 1 nM,,B2
< 1 nM,,B3
< 1 nM,,B4
< 10 pM,,B5
< 1 nM,,B6
< 0.1 nM,,B7
< 1 nM,,B8
< 1 nM,,B9
< 1 nM,,B10
< 1 nM,,B11
,< 10 nM,B12
< 1 nM,,B13
,< 10 nM,B14
,< 10 nM,B15
< 1 nM,,B16
,< 10 nM,B17
,< 10 nM,B18
< 0.1 nM,,B19
